Earlier results, collected in PMC4407497.

Columns and labels:
IL-22R1 (Homo sapiens) = IL-22R1 (Homo sapiens) (UniProt Q8N6P7)
IL-22BP (Homo sapiens) = IL-22BP (Homo sapiens) (UniProt Q969J5)
UniProt Q969J5, sequence (Q969J5 22-263): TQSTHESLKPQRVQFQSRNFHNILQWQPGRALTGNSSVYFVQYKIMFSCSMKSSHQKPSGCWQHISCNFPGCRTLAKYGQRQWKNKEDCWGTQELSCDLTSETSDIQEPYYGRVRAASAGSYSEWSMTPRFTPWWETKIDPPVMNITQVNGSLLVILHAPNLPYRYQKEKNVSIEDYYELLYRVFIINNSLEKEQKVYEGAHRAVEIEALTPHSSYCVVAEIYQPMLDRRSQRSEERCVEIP

UniProt Q8N6P7, sequence (Q8N6P7 16-228): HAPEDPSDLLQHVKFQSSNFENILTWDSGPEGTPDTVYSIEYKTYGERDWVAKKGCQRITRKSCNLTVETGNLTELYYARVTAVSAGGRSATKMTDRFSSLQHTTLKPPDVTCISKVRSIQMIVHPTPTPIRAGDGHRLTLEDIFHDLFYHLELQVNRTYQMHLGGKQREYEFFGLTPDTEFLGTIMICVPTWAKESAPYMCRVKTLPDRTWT

Substance: IL-22 (from UniProt Q9GZX6)
- Kd (IL-22R1 (Homo sapiens)): 20 nM
- Kd (IL-22BP (Homo sapiens)): 0.001 nM
